This note sets out measurements from patent US20260043020A1, “BINDING MEMBERS WITH ALTERED DIVERSITY SCAFFOLD DOMAINS” (priority 2016, published 2026).

One test addresses human Kv 1.3 (human) (UniProt P22001). Nature of the test: cell-based or functional assay.
Test [1] concerns the target trypsin. As to the kind of experiment: monoclonal phage TRF ELISA.
For test [2], the target named is trypsin. As to the kind of experiment: phage TRF ELISA; GlyAla (Pro3Gly, Arg4Ala) mutant against the clone. Background: An ELISA detects its analyte on a solid surface through an enzyme-linked reagent.

human Kv 1.3 (human), sequence (P22001 whole entry): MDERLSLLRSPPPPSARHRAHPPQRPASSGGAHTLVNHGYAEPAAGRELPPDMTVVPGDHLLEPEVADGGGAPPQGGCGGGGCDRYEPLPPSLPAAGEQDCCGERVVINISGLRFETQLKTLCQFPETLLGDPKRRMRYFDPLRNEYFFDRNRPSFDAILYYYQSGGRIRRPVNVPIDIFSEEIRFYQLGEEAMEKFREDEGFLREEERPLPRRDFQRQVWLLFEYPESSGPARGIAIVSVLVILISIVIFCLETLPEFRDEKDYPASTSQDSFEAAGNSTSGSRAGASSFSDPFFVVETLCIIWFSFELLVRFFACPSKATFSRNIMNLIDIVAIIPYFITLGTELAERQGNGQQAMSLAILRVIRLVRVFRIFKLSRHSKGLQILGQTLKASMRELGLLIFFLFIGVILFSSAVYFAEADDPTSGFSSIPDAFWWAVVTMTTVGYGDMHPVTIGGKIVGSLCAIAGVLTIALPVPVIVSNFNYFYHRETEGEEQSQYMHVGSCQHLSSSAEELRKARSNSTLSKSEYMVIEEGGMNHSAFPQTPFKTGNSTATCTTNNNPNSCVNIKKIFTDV

B1: KB_A07_Shk (antibody, V domains shown)
VH: EVQLVESGGGLVRPGGSLRLSCAASGFTFSSYAMSWVRQAPGKGLEWVSAISGSGGSTYYADSVKGRFTISRDNTKNSLYLQMTSLRADDTAFYYCVKDFGPGYGTGWFDYWGPGTLVTVSS
VL: NWYQQKPGKAPKLLIYAAGVRSCIDTIPKSRCTAFQCKHSMKYRLSFCRKTCGTCSRSGVPSRFSGSGSGTDFTLTISSLQPEDFATYYCQQGASPPYTFGQGTKVEIKR
B1 gave an IC50, inhibition of huKv1.3 currents (QPatch, CHO cells) in the test with human Kv 1.3 (human) of 40 nM.

B2: KB_C09 (scFv, V domains shown)
VH: EVQLVESGGGLVRPGGSLRLSCAASGFTFSSYAMSWVRQAPGKGLEWVSAISGSGGSTYYADSVKGRFTISRDNTKNSLYLQMTSLRADDTAFYYCVKDFGPGYGTGWFDYWGPGTLVTVSS
VL: AVNWYQQLPGKAPKLLIYAAGRCPRILMRCKQDSDCLAGCVCGPNGFCGGGSGVPDRFSGSIDSSSNSASLTISGLRAEDEADYYCQSYDSSNHWVFGGGTKLTVLG
The molecule B2 came in with a trypsin binding signal (FU) with trypsin [1] of 89400 FU. This molecule also displayed a % reduction in binding signal in the test with trypsin [2] of 100%.

B3: KB_B10 (scFv, V domains shown)
VH: EVQLVESGGGLVRPGGSLRLSCAASGFTFSSYAMSWVRQAPGKGLEWVSAISGSGGSTYYADSVKGRFTISRDNTKNSLYLQMTSLRADDTAFYYCVKDFGPGYGTGWFDYWGPGTLVTVSS
VL: QSVLTQLPSVSEAPRQRVTITCGRAMCPRILMRCKQDSDCLAGCVCGPNGFCGTGNWYQQHPGKAPKLIIFDVSKRPSGVPDRFSASKSGNTASLTISGLQAEDEADYYCNSYTSSNTWVFGGGTQLTVLG
With B3, in the test with trypsin [1], the trypsin binding signal (FU) was found to be 9270 FU. Moreover, the % reduction in binding signal with trypsin [2] is 100%.

B4: KB_B02 (scFv, V domains shown)
VH: EVQLVESGGGLVRPGGSLRLSCAASGFTFSSYAMSWVRQAPGKGLEWVSAISGSGGSTYYADSVKGRFTISRDNTKNSLYLQMTSLRADDTAFYYCVKDFGPGYGTGWFDYWGPGTLVTVSS
VL: AVNWYQQLPGKAPKLLIYAAVGCPRILMRCKQDSDCLAGCVCGPNGFCGTGSGIPERFSGSKSGNTASLTISGLQAEDEGDYYCAAWDDSLSGPVFGGGTKLTVLG
B4 yielded a trypsin binding signal (FU) with trypsin [1] of 116000 FU. Also, in the test with trypsin [2], the % reduction in binding signal stood at 98%.

B5: KB_A10 (scFv, V domains shown)
VH: EVQLVESGGGLVRPGGSLRLSCAASGFTFSSYAMSWVRQAPGKGLEWVSAISGSGGSTYYADSVKGRFTISRDNTKNSLYLQMTSLRADDTAFYYCVKDFGPGYGTGWFDYWGPGTLVTVSS
VL: AVNWYQQLPGKAPKLLIYAAGGCPRILMRCKQDSDCLAGCVCGPNGFCGSNSGVPDRFSGSKSGNTASLTISGLQSEDEADYYCAAWDDSLSGVVFGGGTQLTVLG
In the test with trypsin [1], B5 returned a trypsin binding signal (FU) of 38800 FU. In addition, the % reduction in binding signal with trypsin [2] is 100%.

B6: KB_C08 (scFv, V domains shown)
VH: EVQLVESGGGLVRPGGSLRLSCAASGFTFSSYAMSWVRQAPGKGLEWVSAISGSGGSTYYADSVKGRFTISRDNTKNSLYLQMTSLRADDTAFYYCVKDFGPGYGTGWFDYWGPGTLVTVSS
VL: AVNWYQQLPGKAPKLLIYAAAVCPRILMRCKQDSDCLAGCVCGPNGFCGTRSGIPERFSGSKSGTSAFLAISGLRSEDEADYYCAAWDDSLSGVVFGGGTKLTVLG
For the molecule B6, in the test with trypsin [1], the trypsin binding signal (FU) came out at 76800 FU. The molecule further displayed a % reduction in binding signal in the test with trypsin [2] of 100%.

B7: KB_C07 (scFv, V domains shown)
VH: EVQLVESGGGLVRPGGSLRLSCAASGFTFSSYAMSWVRQAPGKGLEWVSAISGSGGSTYYADSVKGRFTISRDNTKNSLYLQMTSLRADDTAFYYCVKDFGPGYGTGWFDYWGPGTLVTVSS
VL: AVNWYQQLPGKAPKLLIYAAVGCPRILMRCKQDSDCLAGCVCGPNGFCGSASGVSDRFSGSKSGTSASLAISGLRSEDEADYYCASWDDSLRGYVFGTGTKVTVLG
As for B7, the trypsin binding signal (FU) in the test with trypsin [1] was found to be 43300 FU. Moreover, in the test with trypsin [2], the % reduction in binding signal worked out at 100%.

B8: KB_B11 (scFv, V domains shown)
VH: EVQLVESGGGLVRPGGSLRLSCAASGFTFSSYAMSWVRQAPGKGLEWVSAISGSGGSTYYADSVKGRFTISRDNTKNSLYLQMTSLRADDTAFYYCVKDFGPGYGTGWFDYWGPGTLVTVSS
VL: TQPPSVSEAPRQRVTITCGSRPCPRILMRCKQDSDCLAGCVCGPNGFCGSHNWYQQLPGSSPTTVIYEDNQRPSGVPDRFSGSIDRSSNSASLTISGLKTEDEADYYCQSYDSSNHRVVFGGGTKLTVLG
Consider B8, for which the trypsin binding signal (FU) in the test with trypsin [1] was found to be 10300 FU. Besides, in the test with trypsin [2], the % reduction in binding signal was 100%.

B9: KB_A11 (scFv, V domains shown)
VH: EVQLVESGGGLVRPGGSLRLSCAASGFTFSSYAMSWVRQAPGKGLEWVSAISGSGGSTYYADSVKGRFTISRDNTKNSLYLQMTSLRADDTAFYYCVKDFGPGYGTGWFDYWGPGTLVTVSS
VL: YLNWYQQKPGKAPKLLIYAAEICPRILMRCKQDSDCLAGCVCGPNGFCGPSSGIPARFSGSGYGTDFTLTINNIESEDAAYYFCLQHDNFPYTFGQGTKVEIKR
Consider B9, for which the trypsin binding signal (FU) with trypsin [1] was 16400 FU. Moreover, in the test with trypsin [2], the % reduction in binding signal was 100%.

B10: KB_B12 (scFv, V domains shown)
VH: EVQLVESGGGLVRPGGSLRLSCAASGFTFSSYAMSWVRQAPGKGLEWVSAISGSGGSTYYADSVKGRFTISRDNTKNSLYLQMTSLRADDTAFYYCVKDFGPGYGTGWFDYWGPGTLVTVSS
VL: TQPPSVSEAPRQRVTITCGERPCPRILMRCKQDSDCLAGCVCGPNGFCGANNWYQQLPGSSPTTVIYEDNQRPSGVPDRFSGSIDSSSNSASLTISGLKTEDEADYYCQSYDSSNQVFGGGTKVTVLG
In the test with trypsin [1], B10 registered a trypsin binding signal (FU) of 17400 FU. Also, the % reduction in binding signal with trypsin [2] was found to be 97%.

B11: KB_A09 (scFv, V domains shown)
VH: EVQLVESGGGLVRPGGSLRLSCAASGFTFSSYAMSWVRQAPGKGLEWVSAISGSGGSTYYADSVKGRFTISRDNTKNSLYLQMTSLRADDTAFYYCVKDFGPGYGTGWFDYWGPGTLVTVSS
VL: AVNWYQQLPGKAPKLLIYAAERCPRILMRCKQDSDCLAGCVCGPNGFCGTPSGVPDRFSGSIDTFSNSASLTISGLKTEDEADYYCQSYDSSHHWVFGGGTKLTVLG
For B11, the trypsin binding signal (FU) with trypsin [1] is 57700 FU. In the test with trypsin [2], this molecule displayed a % reduction in binding signal of 100%.

B12: KB_B01 (scFv, V domains shown)
VH: EVQLVESGGGLVRPGGSLRLSCAASGFTFSSYAMSWVRQAPGKGLEWVSAISGSGGSTYYADSVKGRFTISRDNTKNSLYLQMTSLRADDTAFYYCVKDFGPGYGTGWFDYWGPGTLVTVSS
VL: AVNWYQQLPGKAPKLLIYAAAGCPRILMRCKQDSDCLAGCVCGPNGFCGTRSGVSDRFSGSKSGTSASLAISGLRSEDEADYYCAAWDDSLRAYVFGTGTKLTVLG
In the test with trypsin [1], B12 gave a trypsin binding signal (FU) of 57700 FU. Moreover, in the test with trypsin [2], the % reduction in binding signal is 95%.

B13: KB_C10 (scFv, V domains shown)
VH: EVQLVESGGGLVRPGGSLRLSCAASGFTFSSYAMSWVRQAPGKGLEWVSAISGSGGSTYYADSVKGRFTISRDNTKNSLYLQMTSLRADDTAFYYCVKDFGPGYGTGWFDYWGPGTLVTVSS
VL: AVNWYQQLPGKAPKLLIYAAGPCPRILMRCKQDSDCLAGCVCGPNGFCGADSGVSDRFSGSKSGTSASLAITGLQAEDEGDYYCAAWDDSLNGLVFGGGTKVTVLG
With B13, the trypsin binding signal (FU) with trypsin [1] was 119000 FU. Besides, the % reduction in binding signal with trypsin [2] is 100%.
